Experiments:
Grb2 SH2 = Grb2 SH2 (UniProt P62993); assay: SH2 binding enrichment of the phosphorylated peptide, bacterial display (enrichment ratio); higher = better substrate or ligand; peptides without Tyr show the background
c-Src SH2 = assay: as above
SHP2-C SH2 = assay: as above
Fes = Fes (UniProt P07332); assay: phosphorylation enrichment, bacterial display (enrichment ratio); higher = better substrate or ligand; peptides without Tyr show the background
c-Abl (mouse) = assay: as above
EPHB1 = EPHB1 (UniProt P54762); assay: as above
EPHB2 = EPHB2 (UniProt P29323); assay: as above
Fyn = Fyn (UniProt P06241); assay: as above
c-Src = assay: as above
Hck = Hck (UniProt P08631); assay: as above
AncSZ = assay: as above
Fer (mouse) = assay: as above
FGFR3 = FGFR3 (UniProt P22607); assay: as above
MERTK = MERTK (UniProt Q12866); assay: as above
Jak2 = Jak2 (UniProt O60674); assay: as above
FGFR1 = FGFR1 (UniProt P11362); assay: as above
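For SH2 binding enrichment of the phosphorylated peptide, bacterial display in this document: peptide library displayed on the E. coli surface as eCPX fusions, selected cells deep-sequenced, score is each peptide's frequency after selection divided by its frequency in the input.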
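For phosphorylation enrichment, bacterial display in this document: 11-residue human phosphosite peptides and single-mutation variants displayed on the E. coli surface, counted by deep sequencing, each peptide's frequency after selection divided by its frequency in the unselected input library; frequency after pTyr selection over input frequency; kinase dosed for 20-30% of maximal phosphorylation in three min.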

Sequence of MERTK (Q12866 whole entry, looked up): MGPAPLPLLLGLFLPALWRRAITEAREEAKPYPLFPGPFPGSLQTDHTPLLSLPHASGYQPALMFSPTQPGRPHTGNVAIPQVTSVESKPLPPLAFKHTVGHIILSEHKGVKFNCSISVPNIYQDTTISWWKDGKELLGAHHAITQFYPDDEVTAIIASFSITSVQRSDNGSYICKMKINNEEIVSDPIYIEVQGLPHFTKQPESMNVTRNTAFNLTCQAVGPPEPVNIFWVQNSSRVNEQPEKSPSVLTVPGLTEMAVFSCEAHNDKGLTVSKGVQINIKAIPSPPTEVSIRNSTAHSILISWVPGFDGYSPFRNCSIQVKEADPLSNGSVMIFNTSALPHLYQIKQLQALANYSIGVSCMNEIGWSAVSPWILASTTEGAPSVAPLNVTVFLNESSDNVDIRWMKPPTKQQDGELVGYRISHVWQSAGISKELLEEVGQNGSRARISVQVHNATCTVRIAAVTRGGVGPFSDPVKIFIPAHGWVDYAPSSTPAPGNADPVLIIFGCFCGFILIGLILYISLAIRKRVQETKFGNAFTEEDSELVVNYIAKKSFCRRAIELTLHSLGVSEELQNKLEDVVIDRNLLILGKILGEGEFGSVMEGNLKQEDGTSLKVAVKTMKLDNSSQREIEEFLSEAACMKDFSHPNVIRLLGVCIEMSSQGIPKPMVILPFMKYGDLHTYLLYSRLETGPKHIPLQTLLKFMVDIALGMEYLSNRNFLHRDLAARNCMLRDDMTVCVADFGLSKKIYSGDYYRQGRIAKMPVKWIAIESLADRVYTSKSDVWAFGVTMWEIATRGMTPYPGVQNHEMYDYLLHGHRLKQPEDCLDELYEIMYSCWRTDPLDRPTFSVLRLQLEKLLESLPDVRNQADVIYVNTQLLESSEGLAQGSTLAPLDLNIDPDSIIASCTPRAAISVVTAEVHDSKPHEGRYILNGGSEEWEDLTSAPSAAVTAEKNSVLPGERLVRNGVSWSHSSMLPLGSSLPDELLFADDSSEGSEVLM
Sequence of EPHB2 (P29323 whole entry, looked up): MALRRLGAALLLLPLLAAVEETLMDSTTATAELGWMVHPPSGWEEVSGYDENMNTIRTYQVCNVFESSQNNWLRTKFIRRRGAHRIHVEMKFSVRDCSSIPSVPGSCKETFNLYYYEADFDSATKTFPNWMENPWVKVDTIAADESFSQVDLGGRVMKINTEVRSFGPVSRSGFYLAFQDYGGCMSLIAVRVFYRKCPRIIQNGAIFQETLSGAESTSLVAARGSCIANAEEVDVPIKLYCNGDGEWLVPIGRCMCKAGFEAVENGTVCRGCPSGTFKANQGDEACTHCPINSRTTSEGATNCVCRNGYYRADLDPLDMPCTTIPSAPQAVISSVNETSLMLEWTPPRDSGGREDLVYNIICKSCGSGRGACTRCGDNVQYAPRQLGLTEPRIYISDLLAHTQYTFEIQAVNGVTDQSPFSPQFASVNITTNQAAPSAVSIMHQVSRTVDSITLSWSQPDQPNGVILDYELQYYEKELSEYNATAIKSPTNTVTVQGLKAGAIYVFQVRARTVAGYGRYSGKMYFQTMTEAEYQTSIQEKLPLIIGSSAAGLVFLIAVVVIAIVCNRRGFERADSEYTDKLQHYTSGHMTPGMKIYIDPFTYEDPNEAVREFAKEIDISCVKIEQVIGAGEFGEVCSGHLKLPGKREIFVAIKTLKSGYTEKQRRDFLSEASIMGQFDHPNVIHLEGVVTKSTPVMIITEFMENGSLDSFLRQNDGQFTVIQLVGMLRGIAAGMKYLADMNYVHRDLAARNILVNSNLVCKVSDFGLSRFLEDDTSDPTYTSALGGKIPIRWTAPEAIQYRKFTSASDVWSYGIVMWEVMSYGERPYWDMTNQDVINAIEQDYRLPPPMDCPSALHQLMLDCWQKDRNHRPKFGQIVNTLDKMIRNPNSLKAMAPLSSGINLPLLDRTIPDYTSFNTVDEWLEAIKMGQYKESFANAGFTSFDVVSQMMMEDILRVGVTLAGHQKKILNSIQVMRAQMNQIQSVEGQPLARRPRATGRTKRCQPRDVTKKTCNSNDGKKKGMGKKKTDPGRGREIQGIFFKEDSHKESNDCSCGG
Sequence of Fes (P07332 whole entry, looked up): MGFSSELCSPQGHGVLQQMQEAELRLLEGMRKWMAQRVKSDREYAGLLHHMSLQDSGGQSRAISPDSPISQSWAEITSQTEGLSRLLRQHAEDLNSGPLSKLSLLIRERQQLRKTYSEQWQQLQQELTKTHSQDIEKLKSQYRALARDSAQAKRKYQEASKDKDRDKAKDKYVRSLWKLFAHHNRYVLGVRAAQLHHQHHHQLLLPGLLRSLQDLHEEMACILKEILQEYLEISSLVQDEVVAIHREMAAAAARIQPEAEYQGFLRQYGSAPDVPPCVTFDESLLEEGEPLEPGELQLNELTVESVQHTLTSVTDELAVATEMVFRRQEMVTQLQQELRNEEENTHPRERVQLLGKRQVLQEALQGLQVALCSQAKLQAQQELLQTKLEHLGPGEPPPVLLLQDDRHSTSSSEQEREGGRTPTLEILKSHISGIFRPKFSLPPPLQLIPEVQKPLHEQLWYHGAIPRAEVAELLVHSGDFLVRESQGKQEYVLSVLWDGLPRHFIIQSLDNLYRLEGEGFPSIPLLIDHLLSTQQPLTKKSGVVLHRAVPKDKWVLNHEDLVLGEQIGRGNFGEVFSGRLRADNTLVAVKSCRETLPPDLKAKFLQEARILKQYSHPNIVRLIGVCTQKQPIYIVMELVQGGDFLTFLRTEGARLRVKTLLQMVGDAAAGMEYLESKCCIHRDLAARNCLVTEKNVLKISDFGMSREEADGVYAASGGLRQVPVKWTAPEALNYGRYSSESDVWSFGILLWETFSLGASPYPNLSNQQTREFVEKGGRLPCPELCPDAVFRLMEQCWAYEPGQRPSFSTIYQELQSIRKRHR
Sequence of FGFR3 (P22607 whole entry, looked up): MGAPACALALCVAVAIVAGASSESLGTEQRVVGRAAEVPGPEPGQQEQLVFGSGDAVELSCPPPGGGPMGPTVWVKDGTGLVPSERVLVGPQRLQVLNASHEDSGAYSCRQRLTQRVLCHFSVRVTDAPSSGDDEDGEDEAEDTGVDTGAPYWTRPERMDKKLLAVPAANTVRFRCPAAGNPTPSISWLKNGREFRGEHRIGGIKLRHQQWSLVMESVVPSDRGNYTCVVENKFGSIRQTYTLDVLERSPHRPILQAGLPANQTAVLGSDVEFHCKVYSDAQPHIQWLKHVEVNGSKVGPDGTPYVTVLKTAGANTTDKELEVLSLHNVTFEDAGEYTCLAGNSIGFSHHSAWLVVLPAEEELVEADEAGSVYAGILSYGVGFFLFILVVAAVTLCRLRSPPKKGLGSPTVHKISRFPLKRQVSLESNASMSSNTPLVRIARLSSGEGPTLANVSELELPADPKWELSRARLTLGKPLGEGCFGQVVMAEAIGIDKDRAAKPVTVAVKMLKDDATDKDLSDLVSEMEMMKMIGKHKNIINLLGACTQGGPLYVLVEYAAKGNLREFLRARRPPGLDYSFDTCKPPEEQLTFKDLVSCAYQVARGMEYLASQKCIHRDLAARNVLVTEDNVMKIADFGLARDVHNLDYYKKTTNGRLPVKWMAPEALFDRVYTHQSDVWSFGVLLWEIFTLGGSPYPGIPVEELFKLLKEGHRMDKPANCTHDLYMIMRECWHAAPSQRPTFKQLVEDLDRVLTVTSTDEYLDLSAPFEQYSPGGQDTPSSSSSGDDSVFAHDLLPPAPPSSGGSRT
Sequence of Fyn (P06241 whole entry, looked up): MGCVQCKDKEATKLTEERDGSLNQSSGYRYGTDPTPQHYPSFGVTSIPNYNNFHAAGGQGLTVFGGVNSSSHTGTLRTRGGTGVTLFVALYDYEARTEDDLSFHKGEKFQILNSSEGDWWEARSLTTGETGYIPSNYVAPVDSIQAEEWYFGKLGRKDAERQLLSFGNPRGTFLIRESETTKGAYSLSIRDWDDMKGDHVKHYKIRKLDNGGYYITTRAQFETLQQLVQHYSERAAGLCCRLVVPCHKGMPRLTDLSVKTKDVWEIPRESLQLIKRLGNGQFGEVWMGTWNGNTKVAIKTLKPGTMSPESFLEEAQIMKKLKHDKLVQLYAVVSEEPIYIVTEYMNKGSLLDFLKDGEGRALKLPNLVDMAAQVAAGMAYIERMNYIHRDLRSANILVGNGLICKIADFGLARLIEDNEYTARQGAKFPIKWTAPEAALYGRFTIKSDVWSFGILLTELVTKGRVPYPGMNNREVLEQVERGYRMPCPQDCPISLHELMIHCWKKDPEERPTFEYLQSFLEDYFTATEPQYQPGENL
Sequence of Hck (P08631 whole entry, looked up): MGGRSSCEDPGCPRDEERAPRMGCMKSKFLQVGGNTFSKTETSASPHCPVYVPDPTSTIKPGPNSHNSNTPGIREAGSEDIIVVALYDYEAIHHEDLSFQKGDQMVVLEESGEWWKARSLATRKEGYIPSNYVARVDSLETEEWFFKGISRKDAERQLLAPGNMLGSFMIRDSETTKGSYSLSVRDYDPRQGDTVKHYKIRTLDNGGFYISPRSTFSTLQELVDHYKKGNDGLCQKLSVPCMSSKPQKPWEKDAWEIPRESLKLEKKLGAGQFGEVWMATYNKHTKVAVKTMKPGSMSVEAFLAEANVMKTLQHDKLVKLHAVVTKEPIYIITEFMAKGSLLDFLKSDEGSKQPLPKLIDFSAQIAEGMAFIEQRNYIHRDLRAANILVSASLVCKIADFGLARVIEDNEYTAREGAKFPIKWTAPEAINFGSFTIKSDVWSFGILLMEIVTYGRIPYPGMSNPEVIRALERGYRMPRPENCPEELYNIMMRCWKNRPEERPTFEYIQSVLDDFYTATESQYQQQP
Sequence of Grb2 SH2 (P62993 whole entry, looked up): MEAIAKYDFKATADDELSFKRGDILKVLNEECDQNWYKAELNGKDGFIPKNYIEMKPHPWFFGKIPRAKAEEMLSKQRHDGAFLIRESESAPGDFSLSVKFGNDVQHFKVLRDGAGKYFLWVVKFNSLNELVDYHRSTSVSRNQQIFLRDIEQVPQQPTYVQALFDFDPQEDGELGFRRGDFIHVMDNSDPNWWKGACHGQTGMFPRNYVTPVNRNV

Sequence	SH2 binding enrichment (Grb2 SH2)	SH2 binding enrichment (c-Src SH2)	SH2 binding enrichment (SHP2-C SH2)	phosphorylation enrichment (Fes)	phosphorylation enrichment (c-Abl (mouse))	phosphorylation enrichment (EPHB1)	phosphorylation enrichment (EPHB2)	phosphorylation enrichment (Fyn)	phosphorylation enrichment (c-Src)	phosphorylation enrichment (Hck)	phosphorylation enrichment (AncSZ)	phosphorylation enrichment (Fer (mouse))	phosphorylation enrichment (FGFR3)	phosphorylation enrichment (MERTK)	phosphorylation enrichment (Jak2)	phosphorylation enrichment (FGFR1)
IFETDYFQKGG [INSR_Y1189_R1191Q_YF]	0.948	0.492	0.438	1.01	0.662	0.421	0.401	0.502	0.492	0.473	1.24	0.358	0.876	0.386	0.981	0.468
HSGIYYKPESL [L2HGDH_Y103]	0.925	0.601	0.563	0.984	27.1	6.97	6.24	4.78	3.78	6.44	1.59	0.613	4.95	9.79	2.35	5.66
ERDTVYSSSGV [NELL2_Y350_N347D]	0.847	0.447	0.492	0.883	0.617	0.435	0.52	1.78	1.79	1.5	0.711	0.451	0.584	0.42	0.601	0.502
LAVPLYKNGVK [CPS1_Y1069]	1.12	0.512	0.708	0.856	0.777	1.09	1.67	0.777	0.416	0.574	1.23	1.04	0.836	1.42	0.933	0.904
AGARMYGVLPW [PLP1_Y207_D203G]	0.782	0.513	0.549	0.75	0.667	0.542	0.724	4.8	3.6	5.5	0.67	0.447	0.495	0.842	0.55	0.489
RLRKFHLGKFL [KLB_Y906_Y906H_YF]	0.229	0.303	0.406	1.13	0.948	1.17	1.16	0.574	0.792	0.63	1.06	0.415	0.651	0.969	0.698	0.417
ANKNVYEVEPT [MEGF10_Y1075_R1072K]	0.821	1.59	0.941	0.938	0.6	0.516	0.492	4.42	2.9	0.798	0.823	0.36	0.7	1.04	0.848	0.383
LEGAKYVSHGA [ASS1_Y113_R108L]	1.18	0.446	0.516	1.14	0.852	0.682	1.03	0.973	0.605	0.606	0.835	0.928	1.17	0.551	0.696	1
GVRYTYTIDGS [DCX_Y105_I104T]	1.07	1.43	5.17	1.08	0.634	0.562	0.623	0.543	0.56	0.483	0.986	0.429	0.758	0.447	0.981	0.521
EIRTQYEAMAS [GFAP_Y242]	0.702	2.62	1.14	0.778	0.676	0.45	0.577	0.55	0.472	0.534	0.691	0.483	0.523	0.415	0.682	0.638
AAAAVYTFLPD [MYORG_Y36_M35V]	0.882	1.92	0.79	1.2	1.12	3.68	2.45	8.32	7.02	6.52	1.48	1.85	10.6	9.47	0.979	12.4
ADFPDCKFRPR [SOX11_Y116_Y116C_YF]	1.05	1.19	0.996	0.983	0.744	0.488	0.409	0.395	0.465	0.545	0.783	0.412	0.616	0.391	0.965	0.532
VRFMADTDETF [F8_Y450_Y450D]	0.676	0.403	0.542	1.3	0.856	0.63	0.644	0.54	0.471	0.59	1.21	0.628	0.755	0.451	1.07	0.505
IKSSIYDNRNE [ARAP2_Y380_K384N]	0.682	0.608	0.593	0.584	0.397	0.413	0.502	0.464	0.399	0.696	0.505	0.33	0.388	0.405	0.466	0.443
QRIHNYYEHRY [HCN4_Y554_D553N]	1.71	1.7	2.06	1.63	0.791	2.91	2.88	0.68	0.769	1.33	1.36	0.65	3.62	1.62	0.724	3.79
IGRGSYAKVLL [PRKCZ_Y263]	0.996	5.41	11.5	0.545	0.468	0.363	0.367	0.384	0.34	0.419	0.611	0.375	0.394	0.452	0.458	0.348
SARFHYLMAEK [LDHB_Y173_R172H]	0.957	0.455	0.601	0.661	0.372	0.463	0.403	0.564	0.403	0.455	0.666	0.473	0.751	0.499	0.455	0.445

Sequence	SH2 binding enrichment (Grb2 SH2)	SH2 binding enrichment (c-Src SH2)	SH2 binding enrichment (SHP2-C SH2)	phosphorylation enrichment (Fes)	phosphorylation enrichment (c-Abl (mouse))	phosphorylation enrichment (EPHB1)	phosphorylation enrichment (EPHB2)	phosphorylation enrichment (Fyn)	phosphorylation enrichment (c-Src)	phosphorylation enrichment (Hck)	phosphorylation enrichment (AncSZ)	phosphorylation enrichment (Fer (mouse))	phosphorylation enrichment (FGFR3)	phosphorylation enrichment (MERTK)	phosphorylation enrichment (Jak2)	phosphorylation enrichment (FGFR1)
ETAENYLGHTA [HSPA9_Y181]	0.972	0.497	0.588	0.865	0.559	0.43	0.652	0.442	0.414	0.47	0.858	0.443	0.523	0.503	0.622	0.486
MEVEQYIFVKC [CYBB_Y324_G322E]	0.725	0.513	0.599	1.64	1.04	1.03	0.868	0.575	0.594	0.71	1.74	0.679	1.99	0.509	1.53	1.98
IGSHAYGDQFR [IDH1_Y135_R132S_YF]	0.892	0.425	0.96	0.556	0.363	0.32	0.389	0.464	0.353	0.498	0.527	0.394	0.51	0.377	0.477	0.518
FLAATYPTLGQ [NF1_Y2508_V2511L_YF]	0.866	0.572	0.814	0.674	0.549	0.723	0.4	0.422	0.404	0.389	0.572	0.4	0.572	0.356	0.523	0.424
FGGLRYGFGVL [KRTAP20-2_Y13_YF]	0.732	0.674	0.913	0.876	0.608	0.443	0.379	0.348	0.35	0.399	0.786	0.351	0.56	0.42	0.753	0.733
SSQTIYQRVEG [TFR2_Y23_V22I]	0.812	1.39	0.898	0.716	0.814	1.5	1.41	0.771	1.6	2.71	0.756	1.24	0.602	2.74	0.525	0.562
FSMGCYEFSLG [HMGCL_Y198_I200F_YF]	0.923	0.498	0.976	1.53	1.47	1.12	0.984	0.881	1.25	0.706	2.26	3	1.14	0.964	1.2	0.733
VAMELYVFRGV [GAN_Y471_G474R]	0.836	0.548	0.567	1.29	0.935	0.707	0.841	0.503	0.615	0.651	1.16	0.501	0.807	0.684	1.09	0.553
SAEKAYHEQFS [TUBA1A_Y282_L286F]	0.983	0.512	0.565	0.701	0.454	0.401	0.393	0.519	0.441	0.458	0.664	0.394	0.459	0.424	0.663	0.557
SHNKFYMLVAH [MFSD8_Y134_R139H_YF]	1.25	0.978	1.28	1.35	0.922	0.865	0.668	0.554	0.447	0.695	1.42	0.791	0.99	0.583	1.18	0.652
VPLATYMRIYK [RPL21_Y30]	0.668	0.534	0.55	0.958	0.591	0.511	0.492	0.454	0.429	0.477	0.887	0.517	0.687	0.412	1.01	0.526
TVDASYCGGRG [ANTXR2_Y380_Y381C]	0.757	0.567	0.914	0.695	0.465	0.393	0.516	0.383	0.351	0.436	0.558	0.402	0.437	0.452	0.558	0.496
QNTGDYCDLYG [PTPN11_Y62_Y63C]	1.11	1.22	1.13	1.08	1.34	9.03	7.83	1.49	1.84	2.08	2.75	1.39	4.13	0.633	1.35	5.87
AFGEVYEGQVS [ALK_Y1131]	0.914	0.499	0.456	1.11	0.764	0.539	0.64	0.772	1.54	0.937	0.974	0.459	0.667	0.442	0.846	0.695
EYRFIYMAVQH [PTPN11_Y515_Q510E]	0.831	0.556	0.765	1.34	2.02	1.96	1.02	4.15	3.46	4.57	1.39	3.17	1.71	1.29	1.26	2.02
ETRWKYHFEVV [GCNT3_Y267]	0.712	0.437	0.678	1.52	0.979	0.701	0.706	0.439	0.364	0.563	1.42	0.57	1.04	0.418	1.35	0.505
